Measurements as given in the supplement of paper PMC10567573.

B1: IKZF1 (parent)
chain: HIKLHSGEKPFKCHLCNYACRRRD

Variants of: B1
Assay: protein stability index of a GFP-peptide fusion (GPS, HEK-293T) (PSI 1-6); higher = more stable
Settings: c terminus: a fixed tail appended
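Further: lentivirally expressed fusions sorted by FACS into six bins by GFP to DsRed ratio, PSI derived from sequencing read proportions per bin multiplied by bin number.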

Protein stability index: each site, then its substitutions
H5: V 1.78, C 2.77, F 1.97, S 1.18, L 1.7, E 2.37, Q 1.78, P 1.94, Y 2.45, G 2.45, K 2.27, A 3.14
C13: E 2.58, V 2.21, W 2.73, M 2.15, L 1.85, T 2.91, D 3.34, N 3.53, S 2.36, F 2.01, I 2.28, H 2.79, Y 1.77
K12: V 2.21, M 2.02, D 1.68, F 2.25, E 2.29, Q 2.28, T 1.68, I 1.78, R 2.23, H 1.7, C 2.32
D24: R 2.22, Y 1.9, Q 1.73, N 1.76, F 2.54, I 2.89, S 1.43, G 2.04, H 2.06, L 2.01, T 2.31, V 2.39
L4: G 2.21, I 1.72, D 2.4, T 1.63, M 1.58, R 2.48, F 1.92, H 4.08, S 2.84, Q 4.68, A 1.99, V 1.31, K 4.07
H14: V 2.23, F 2.32, T 2.42, D 2.82, P 1.83, G 1.89, M 1.54, C 3.78, L 1.88, S 2.09
R22: S 2.97, F 2.03, E 1.95, H 2.71, D 1.76, M 1.87, L 1.72, K 1.95, G 1.5, W 3.09
N17: T 2.12, M 1.86, K 1.2, F 2.79, S 1.97, W 1.62, V 2.39, C 1.3
H1: I 1.5, D 1.59, N 2.73, V 1.72, E 2.21, G 2, T 1.17, K 2.09, P 2.3, Q 1.26, F 2.4, M 1.81
L15: S 2.11, D 1.74, T 2.92, K 2.68, Y 1.63, N 2.27, C 2.66, A 2.28, M 1.36
A19: K 3.11, W 2.52, I 2.13, G 1.49, R 2.62, V 1.4, M 1.88, N 2.27, P 1.71, Q 1.67, H 1.85, E 2.1, F 2.07
C20: K 1.64, N 2.35, R 1.96, P 3.08, H 1.94, S 1.69, Q 2.39, V 2.89, T 2.08, Y 1.86, A 2.41, M 2.5, G 1.96, D 1.59
P10: C 1.76, I 2.19, V 2.26, G 1.93, R 1.74, H 1.67, E 1.07
C16: K 2.91, R 2.81, W 2.14, P 2.2, I 2.35, Q 2.12, N 2.8, M 2.04, S 2.96
Y18: N 1.88, E 2.02, K 1.99, H 1.82, C 2.04, S 1.58, F 2.07, R 2.15, D 2.7, T 1.54
K3: W 2.73, M 1.51, F 2.38, I 1.61
